Assay results published in patent publication US20220041658A1 (PROTAGONIST THERAPEUTICS, published 2022).
Starred links: 1 amine or outer side, 2 acyl side, 3 side chain; linkers in the order of their positions; H or OH if unused. Positions of bridges follow the written chain, without caps; N, C: chain ends. Non-standard residues stand in square brackets, D forms with d. Trp(7-nPr) = CCCc1cccc2c(C[C@H](N[*:1])C(=O)[*:2])c[nH]c12; Trp(7-Me) = Cc1cccc2c(C[C@H](N)C(=O)O)c[nH]c12; Trp(1-Me) = Cn1cc(C[C@H](N)C(=O)O)c2ccccc21; 2Nal = N[C@@H](Cc1ccc2ccccc2c1)C(=O)O; AEF = NCCOc1ccc(C[C@H](N)C(=O)O)cc1; Cit = NC(=O)NCCC[C@H](N)C(=O)O; Pen = CC(C)(S)[C@H](N)C(=O)O; αMeK = C[C@](N)(CCCCN)C(=O)O; βAla = NCCC(=O)O

B1: Peptide of SEQ ID NO: 274 (peptide)
peptide: XNTXQXXXXKNX
modifications: Ac-[Pen]-N-T-[W(7-Me)]-Q-[Pen]-Phe[4-(2-aminoethoxy)]-[2-Nal]-[Achc]-[Lys(Ac)]-N-[bA]-NH2; Pen-Pen disulfide
B2: Peptide of SEQ ID NO: 275 (peptide)
peptide: XNTXQXXXXKNX
modifications: Ac-[Pen]-N-T-[W(7-Me)]-Q-[Pen]-Phe[4-(2-aminoethoxy)]-[2-Nal]-[Spiral_Pip]-[Lys(Ac)]-N-[bA]-NH2; Pen-Pen disulfide
B3: Peptide of SEQ ID NO: 276 (peptide)
peptide: XNTXQXXXXKNX
modifications: Ac-[Pen]-N-T-[W(7-Me)]-Q-[Pen]-Phe[4-(2-aminoethoxy)]-[2-Nal]-[DiethylGly]-[Lys(Ac)]-N-[bA]-NH2; Pen-Pen disulfide
B4: Peptide of SEQ ID NO: 277 (peptide)
peptide: XNTXQXXXXKNX
modifications: Ac-[Pen]-N-T-[W(7-Me)]-Q-[Pen]-Phe[4-(2-aminoethoxy)]-[2-Nal]-[Acbc]-[Lys(Ac)]-N-[bA]-NH2; Pen-Pen disulfide
B5: Peptide of SEQ ID NO: 278 (peptide)
peptide: XNTXQXXXXKNX
modifications: Ac-[Pen]-N-T-[W(7-Me)]-Q-[Pen]-Phe[4-(2-aminoethoxy)]-[2-Nal]-[a-MeOrn]-[Lys(Ac)]-N-[bA]-NH2; Pen-Pen disulfide
B6: Peptide of SEQ ID NO: 279 (peptide)
peptide: XNTXQXXXXXXX
modifications: Ac-[Pen]-N-T-[W(7-Me)]-Q-[Pen]-Phe[4-(2-aminoethoxy)]-[2-Nal]-[a-MeLys]-[Cit]-[bA]-[bA]-NH2; Pen-Pen disulfide
B7: Peptide of SEQ ID NO: 280 (peptide)
peptide: Ac-[Pen]NTX[Cit][Pen][AEF][2Nal][αMeK]K(Ac)[βAla][βAla]-NH2
modifications: disulfide 1-6; not fully specified (residue 4); printed as Ac-[Pen]-N-T-[W(1-Me)]-[Cit]-[Pen]-Phe[4-(2-aminoethoxy)]-[2-Nal]-[a-MeLys]-[Lys(Ac)]-[bA]-[bA]-NH2, Pen-Pen disulfide
B8: Peptide of SEQ ID NO: 281 (peptide)
peptide: Ac-[Pen]NT[Trp(7-Me)][Cit][Pen][AEF][2Nal][αMeK][Cit][βAla][βAla]-NH2
modifications: disulfide 1-6
SMILES: CC(=O)N[C@@H]1C(=O)N[C@@H](CC(N)=O)C(=O)N[C@@H]([C@@H](C)O)C(=O)N[C@@H](Cc2c[nH]c3c(C)cccc23)C(=O)N[C@@H](CCCNC(N)=O)C(=O)N[C@H](C(=O)N[C@@H](Cc2ccc(OCCN)cc2)C(=O)N[C@@H](Cc2ccc3ccccc3c2)C(=O)N[C@@](C)(CCCCN)C(=O)N[C@@H](CCCNC(N)=O)C(=O)NCCC(=O)NCCC(N)=O)C(C)(C)SSC1(C)C
B9: Peptide of SEQ ID NO: 282 (peptide)
peptide: XNTXQXXXXENX
modifications: Ac-[Pen]-N-T-[W(7-Me)]-Q-[Pen]-Phe[4-(2-aminoethoxy)]-[2-Nal]-[a-MeLys]-E-N-[bA]-NH2; Pen-Pen disulfide
B10: Peptide of SEQ ID NO: 285 (peptide)
peptide: Ac-[Pen]NT[Trp(7-nPr)]K(Ac)[Pen][AEF][2Nal][αMeK]K(Ac)N[dL]-NH2
modifications: disulfide 1-6
SMILES: CCCc1cccc2c(C[C@@H]3NC(=O)[C@H]([C@@H](C)O)NC(=O)[C@H](CC(N)=O)NC(=O)[C@@H](NC(C)=O)C(C)(C)SSC(C)(C)[C@@H](C(=O)N[C@@H](Cc4ccc(OCCN)cc4)C(=O)N[C@@H](Cc4ccc5ccccc5c4)C(=O)N[C@@](C)(CCCCN)C(=O)N[C@@H](CCCCNC(C)=O)C(=O)N[C@@H](CC(N)=O)C(=O)N[C@H](CC(C)C)C(N)=O)NC(=O)[C@H](CCCCNC(C)=O)NC3=O)c[nH]c12
B11: Peptide of SEQ ID NO: 288 (peptide)
peptide: XNTXKXXXXKNL
modifications: Ac-[Pen]-N-T-[W(7-OMe)]-[Lys(Ac)]-[Pen]-Phe[4-(2-aminoethoxy)]-[2-Nal]-[a-MeLys]-[Lys(Ac)]-N-[(D)Leu]-NH2; Pen-Pen disulfide

The binders below were run against T1, interleukin-23 receptor (IL-23R) (human, UniProt Q5VWK5 24-629) (assay: cell-based or functional assay).
T1 sequence (looked up): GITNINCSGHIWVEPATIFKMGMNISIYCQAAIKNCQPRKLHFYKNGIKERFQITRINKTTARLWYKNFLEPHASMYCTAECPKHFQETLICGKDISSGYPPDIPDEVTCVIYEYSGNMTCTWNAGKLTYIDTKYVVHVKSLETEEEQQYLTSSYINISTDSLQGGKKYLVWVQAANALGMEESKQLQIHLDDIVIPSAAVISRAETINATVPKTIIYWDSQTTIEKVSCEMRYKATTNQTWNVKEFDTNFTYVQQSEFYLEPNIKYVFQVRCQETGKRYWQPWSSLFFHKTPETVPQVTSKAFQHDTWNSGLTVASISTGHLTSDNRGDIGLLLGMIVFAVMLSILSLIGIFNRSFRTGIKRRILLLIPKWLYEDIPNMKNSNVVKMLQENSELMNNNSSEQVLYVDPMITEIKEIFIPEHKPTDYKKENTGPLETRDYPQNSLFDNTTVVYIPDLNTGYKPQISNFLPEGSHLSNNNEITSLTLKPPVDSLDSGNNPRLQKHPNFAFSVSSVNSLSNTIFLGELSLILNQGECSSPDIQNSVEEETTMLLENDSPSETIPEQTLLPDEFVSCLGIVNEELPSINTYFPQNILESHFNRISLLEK

Which “pStat3 HTRF IC50” value does the source give for B1 here?
The value was 0.484 nM.

With B2 as the binder, how does the “pStat3 HTRF IC50” value read?
The value was 2.17 nM.

B3 was tested. Which “pStat3 HTRF IC50” value did it give?
The value was 0.564 nM.

How did the “pStat3 HTRF IC50” value turn out when B4 was run?
Its value is 0.639 nM.

With B5 as the binder, how does the “pStat3 HTRF IC50” value read?
Its value is 0.849 nM.

B6 was tested. Which “pStat3 HTRF IC50” value did it give?
The value was 5.97 nM.

B7 was tested. Which “pStat3 HTRF IC50” value did it give?
Its value is 17.1 nM.

For B8, which “pStat3 HTRF IC50” value is on record?
Its value is 17.7 nM.

B9 was tested. Which “pStat3 HTRF IC50” value did it give?
Its value is 1.37 nM.

Ac-[Pen]NT[Trp(7-Me)]Q[Pen][AEF][Trp(1-Me)][αMeK]K(Ac)N[βAla]-NH2 (disulfide 1-6) [Peptide of SEQ ID NO: 283] was tested. Which “pStat3 HTRF IC50” value did it give?
The value was 4.52 nM.

For B10, which “pStat3 HTRF IC50” value is on record?
Its value is 0.849 nM.

Which “pStat3 HTRF IC50” value does the source give for Ac-[Pen]NT[Trp(7-i-Pr)]K(Ac)[Pen][AEF][2Nal][αMeK]K(Ac)N[dL]-NH2 (disulfide 1-6 (inferred)) [Peptide of SEQ ID NO: 286] here?
Its value is 1.61 nM.

How did the “pStat3 HTRF IC50” value turn out when B11 was run?
Its value is 1.48 nM.

Ac-[Pen]NT[Trp(7-Me)]K(Ac)[Pen][His_3Bom][2Nal][αMeK]K(Ac)N[dL]-NH2 (disulfide 1-6 (inferred)) [Peptide of SEQ ID NO: 291] was tested. Which “pStat3 HTRF IC50” value did it give?
Its value is over 1 µM.

With Ac-[Pen]NT[Trp(7-Me)]K(Ac)[Pen][His_Bzl][2Nal][αMeK]K(Ac)N[dL]-NH2 (disulfide 1-6 (inferred)) [Peptide of SEQ ID NO: 292] as the binder, how does the “pStat3 HTRF IC50” value read?
Its value is 128 nM.
